{
  "source": "paper PMC12592377",
  "target": "HIV-1 capsid (CA) protein (HIV-1)",
  "assay": "cryo-EM structure; cryo-ET of cryo-FIB lamellae with template matching and subtomogram averaging (C6 symmetry kept) of CA hexamers in capsid lattices of isolated VLP cores incubated with permeabilized CEM cells, EGS-fixed; cores outside the nucleus (approaching and docking), traversing the NPC and imported",
  "data": [
    {"substance": "HIV-1 capsid (CA) protein (natural protein)", "values": [
      {"measurement": "stoichiometry N", "value": 6}
    ]}
  ]
}
